± gives the standard error. This sample holds only a part of the variants without activity.
B1: glmS ribozyme (parent)
chain: AUAAAAGCGCCAGAACUACAGAAAUGUAGUUGACGAGGAGGAGGUUUAUCGAAUUUUCGGCGGAUGCCUCCAAA

Columns and labels:
Conditions in all cases: with glucosamine-6-phosphate
glucosamine-6-phosphate [1] = variants of: B1; assay: self-cleavage kobs at 40 uM GlcN6P; higher = faster cleavage; RNA array
Procedure, shortened: (§1)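 Glucosamine-6-phosphate (40 μM to 10 mM) in HEPES/KCl/Mg(OAc)2 buffer was flowed over sequenced MiSeq chips, and tiles were imaged over ~14 h. Barcoded ribozyme variants there had been transcribed in situ by E. coli RNA polymerase and were tracked through a hybridised Cy3 probe at 37 °C. One- or two-exponential decay fits to per-tile medians, normalised to baseline and to non-cleaving reference variants, gave kobs. kcat and KM came from weighted Michaelis–Menten fits across concentrations.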

glucosamine-6-phosphate [2] = variants of: B1; assay: self-cleavage kobs at 160 uM GlcN6P; higher = faster cleavage; RNA array
Procedure, shortened: as §1

glucosamine-6-phosphate [3] = variants of: B1; assay: self-cleavage kobs at 640 uM GlcN6P; higher = faster cleavage; RNA array
Procedure, shortened: as §1

glucosamine-6-phosphate [4] = variants of: B1; assay: self-cleavage kobs at 2500 uM GlcN6P; higher = faster cleavage; RNA array
Procedure, shortened: as §1

glucosamine-6-phosphate [5] = variants of: B1; assay: self-cleavage kobs at 10000 uM GlcN6P; higher = faster cleavage; RNA array
Procedure, shortened: as §1

Variant	self-cleavage kobs at 40 uM GlcN6P (glucosamine-6-phosphate [1]) [s⁻¹]	self-cleavage kobs at 160 uM GlcN6P (glucosamine-6-phosphate [2]) [s⁻¹]	self-cleavage kobs at 640 uM GlcN6P (glucosamine-6-phosphate [3]) [s⁻¹]	self-cleavage kobs at 2500 uM GlcN6P (glucosamine-6-phosphate [4]) [s⁻¹]	self-cleavage kobs at 10000 uM GlcN6P (glucosamine-6-phosphate [5]) [s⁻¹]
AUAAAAGCGCCAGAACUACAGAAAUGUAGUUGACGAGGAGGAGGUUUAGCAAAUUUUCGGCGGAUGCCUCCAAA [U49G G51A]	< 1e-05	< 1e-05	< 1e-05	< 1e-05	< 1e-05
AUAAAAGCGCCAGAACUACAGAAAUGUAGUUGACGAGGAGGAAGUUUAUCGAAUUUUCGGCGGUUGUCUCCAAA [G43A A64U C67U]	< 1e-05	–	< 1e-05	< 1e-05	< 1e-05
AUAAAAGCGCCAGAACUACAGAAAUGUAGUUGACGGGGAGGAGGUUUAUGGAAUUGUCGGAGGAUGCCUCCAAA [A36G C50G U56G C61A]	0.000189 ± 6.2e-05	–	–	–	0.000459 ± 0.00011
AUAAAAGCGCCAGAACUACAGAAAUGUAGUUGACGAGGAGGAGGGUUAUCGAACUUUCGGCGCUGGCCUCCAAA [U45G U54C G63C A64U U65G]	< 1e-05	–	–	–	–
AUAAAAGCGCCAGAACUACAGAAAUGUAGUUGACGAGGAGCAGGUUUAUCGAAUUUUCGCCGGAUGCCUCCAAA [G41C G60C]	< 1e-05	< 1e-05	< 1e-05	< 1e-05	< 1e-05
AUAAAAGCGCCAGAACUACAGAAAUGUAGGUGACGAGGAGGAGGUUUAUCGUAAUUUCGGCGGAUGCCUCCAAA [U30G A52U U54A]	< 1e-05	–	–	–	4.6e-05 ± 1.6e-05
AUAAAAGCGCCAGAACUACAGAAAUGUAGUUGACGAGGGGGAGGUUUAUCGAAUUCUCGGCGGAUGCCUCUAAA [A39G U56C C71U]	7.63e-05 ± 2.3e-05	–	–	–	–
AUAAAAGCGCCAGAACUACAGAAAUGUAGUUGACUAGGAAGAGGUUUAUCGAAUUUUCGGCGGAUGCCUCCAAA [G35U G40A]	< 1e-05	< 1e-05	< 1e-05	–	< 1e-05
AUAAAAGCGCCAGAACUACAGAAAUGUAGUUGACGAGGAGGGGGUUUAUCGAAUUUUCGGCGGAUGACUCCAAA [A42G C67A]	0.000813 ± 0.00013	0.00197 ± 0.00067	0.008 ± 0.0032	0.00552 ± 0.0024	0.0213 ± 0.0053
AUAAAAGCGCCAGAACUACAGAAAUGUAGUUGGCGGGGAGGAGGUUUAUCUAAUUUUCGGCGGAUGCCUCCAAA [A33G A36G G51U]	< 1e-05	–	–	–	< 1e-05
AUAAAAGCGCUAGAACUACAGAAAUGUACUUGACGAGGAGGAGGUUUAUCGAUUUGUCGGCGGAUGCCUACAAA [C11U G29C A53U U56G C70A]	0.000205 ± 4.8e-05	–	–	–	0.000369 ± 8.6e-05
AUAAAAGCGCCAGAACUACAGAAAUGUAGUUGACUAGGAGGAGCUUUAUCGAAUUCUCGGCGGAUGCCUCCAAA [G35U G44C U56C]	< 1e-05	–	–	–	–
AUAAAAGCGCCAUAACUACAGAAAUGUAGUUGACGAGGAGGAGGUUUAUCGAAUUUUCGCCGGAUGCCUCCAAA [G13U G60C]	< 1e-05	–	–	–	< 1e-05

— the supplement of paper PMC7125110
